In patent US20230302100:
Values joined by “and” are separate entries in the source; they are usually repeats but may differ in a detail not shown here. Equal entries are not always repeated.

Target: IVIg (Octagam)

B1: pCART229 (protein)
chain: MDDYQRNATEAYAKEVPHQITSVWTKGVTPPEQFTQGEDVIHAPYLAHQGWYDITKAFDGKDNLLCGAATAGNMLHWWFDQNKTEIEAYLSKHPEKQKIIFRNQELFDLKAAIDTKDSQTNSQLFNYFRDKAFPNLSARQLGVMPDLVLDMFINGYYLNVFKTQSTDVNRPYQDKDKRGGIFDAVFTRGNQTTLLTARHDLKNKGLNDISTIIKQELTEGRALALSHTYANVSISHVINLWGADFNAEGNLEAIYVTDSDANASIGMKKYFVGINAHGHVAISAKKIEGENIGAQVLGLFTLSSGKDIWQKLSGGGHHHHHH
- Conc. of enzyme for 1st IgG heavy chain cleavage (IgG to scIgG), SDS-PAGE: 1900 ng/mL
- Conc. of enzyme for 2nd IgG heavy chain cleavage (scIgG to F(ab')2), SDS-PAGE: 7500 ng/mL

B2: pCART208 (protein)
chain: MDDYQRNATEAYAKEVPHQITSVWTKGVTPPEQFTQGEDVIHAPYLAHQGWYDITKAFDGKDNLLCGAATAGNMLHWWFDQNKTEIEAYLSKHPEKQKIIIRNQELFDLKAAIDTKDSQTNSQLFNYFRDKAFPNLSARQLGVMPDLVLDMFINGYYLNVFKTQSTDVNRPYQDKDKRGGIFDAVFTRGDQTTLLTARHDLKNKGLNDISTIIKQELTEGRALALSHTYANVSISHVINLWGADFNAEGNLEAIYVTDSDANASIGMKKYFVGINAHGHVAISAKKIEGENIGAQVLGLFTLSSGKDIWQKLSGGGHHHHHH
- IVIg cleavage of the 1st heavy chain, SDS-PAGE titration: pCART207, pCART208 and pCART210 all show increased efficacy compared to IdeS (BX1001865) in the cleavage of the 1st IgG heavy chain (lane 6)
- IVIg cleavage of the 1st heavy chain, SDS-PAGE titration: fold efficacy over IdeS: In the case of pCART208 this is approximately a 4 fold increase in cleavage efficacy of the 1st heavy chain
- IVIg cleavage of the 2nd heavy chain, SDS-PAGE titration: enzyme concentration giving a dominating F(ab')2 band: pCART208 shows an improved cleavage efficacy, resulting in a dominating F(ab')2 band (arrow 3) at 1.9 ng/ml (lane 5), whereas IdeS (BX1001865) has only generated scIgG (arrow 2) at the same concentration

B3: pCART210 (protein)
chain: MDDYQRNATEAYAKEVPHQITSVWTKGVTPPEQFTQGEDVIHAPYLANQGWYDITKAFDGKDNLLCGAATAGNMLHWWFDQNKTEIEAYLSKHPEKQKIIFRNQELFDLKEAIRTKDSQTNSQLFEYFRDKAFPYLSARQLGVMPDLVLDMFINGYYLNVFKTQSTDVKRPYQDKDKRGGIFDAVFTRGNQTTLLTARHDLKNKGLNDISTIIKEELTKGRALALSHTYANVSISHVINLWGADFNAEGNLEAIYVTDSDANASIGMKKYFVGINKHGHVAISAKKIEGENIGAQVLGLFTLSSGKDIWQKLNGGGHHHHHH
- IVIg cleavage of the 1st heavy chain, SDS-PAGE titration: pCART207, pCART208 and pCART210 all show increased efficacy compared to IdeS (BX1001865) in the cleavage of the 1st IgG heavy chain (lane 6)

B4: pCART206 (protein)
chain: MDDYQRNATEAYAKEVPHQITSVWTKGVTPPEQFTQGEDVIHAPYLAHQGWYDITKAFDGKDNLLCGAATAGNMLHWWFDQNKTEIEAYLSKHPEKQKIIINNQELFDLKAAIDTKDSQTNSQLFNYFRDKAFPNLSARQLGVMPDLVLDMFINGYYLNVFKTQSTDVNRPYQDKDKRGGIFDAVFTRGDQTTLLTARHDLKNKGLNDISTIIKQELTEGRALALSHTYANVSISHVINLWGADFNAEGNLEAIYVTDSDANASIGMKKYFVGINAHGHVAISAKKIEGENIGAQVLGLFTLSSGKDIWQKLSGGGHHHHHH
- IVIg cleavage in the presence of anti-IdeS neutralizing antibodies, SDS-PAGE titration: A similar result was obtained for pCART206 (data not shown)

B5: pCART203 (protein)
chain: MDDYQRNATEAYAKEVPHQITSVWTKGVTPPEQFTQGEDVIHAPYLAHQGWYDITKAFDGKDNLLCGAATAGNMLHWWFDQNKTEIEAYLSKHPEKQKIIFNNQELFDLKAAIDTKDSQTNSQLFNYFRDKAFPNLSARQLGVMPDLVLDMFINGYYLNVFKTQSTDVNRPYQDKDKRGGIFDAVFTRGDQTTLLTARHDLKNKGLNDISTIIKQELTEGRALALSHTYANVSISHVINLWGADFNAEGNLEAIYVTDSDANASIGMKKYFVGINAHGHVAISAKKIEGENIGAQVLGLFTLSSGKDIWQKLSGGGHHHHHH
- IVIg cleavage, SDS-PAGE titration: pCART203 shows a capacity comparable to IdeS (BX1001865 and pCART124) at the 2nd cleavage site (lane 2, 3 and 4) and a higher cleavage efficacy than both IdeS and IdeZ (pCART144) at the 1st cleavage site (lane 7)
- IVIg cleavage, SDS-PAGE titration: enzyme concentration at which cleavage is seen: Enzyme pCART203 demonstrates IgG cleavage at 0.5 ng/ml (lane 7)
- IVIg cleavage, SDS-PAGE titration: enzyme concentration giving an intense scIgG band: Concentrations of 0.94 ng/ml (lane 6) for pCART202, pCART203 and pCART204 result in an intense band of scIgG (arrow 2), with most of the IgG single cleaved
- IVIg cleavage, SDS-PAGE titration: enzyme concentration giving mainly scIgG: has generated mainly scIgG (arrow 2) at about 0.9 ng/ml (lane 6)
- IVIg cleavage, SDS-PAGE titration: fold efficacy over IdeS: This corresponds to a 2 fold increased efficacy compared to IdeS

B6: pCART204 (protein)
chain: MDDYQRNATEAYAKEVPHQITSVWTKGVTPPEQFRYNNEDVIHAPYLAHQGWYDITKAFDGKDNLLCGAATAGNMLHWWFDQNKTEIEAYLSKHPEKQKIIFNNQELFDLKAAIDTKDSQTNSQLFNYFRDKAFPNLSARQLGVMPDLVLDMFINGYYLNVFKTQSTDVNRPYQDKDKRGGIFDAVFTRGDQTTLLTARHDLKNKGLNDISTIIKQELTEGRALALSHTYANVSISHVINLWGADFNAEGNLEAIYVTDSDANASIGMKKYFVGINAHGHVAISAKKIEGENIGAQVLGLFTLSSGKDIWQKLSGGGHHHHHH
- IVIg cleavage, SDS-PAGE titration: enzyme concentration giving an intense scIgG band: Concentrations of 0.94 ng/ml (lane 6) for pCART202, pCART203 and pCART204 result in an intense band of scIgG (arrow 2), with most of the IgG single cleaved

B7: pCART124 (IdeS with N terminal methionine and histidine tag) (protein)
chain: MDSFSANQEIRYSEVTPYHVTSVWTKGVTPPANFTQGEDVFHAPYVANQGWYDITKTFNGKDDLLCGAATAGNMLHWWFDQNKDQIKRYLEEHPEKQKINFNGEQMFDVKEAIDTKNHQLDSKLFEYFKEKAFPYLSTKHLGVFPDHVIDMFINGYRLSLTNHGPTPVKEGSKDPRGGIFDAVFTRGDQSKLLTSRHDFKEKNLKEISDLIKKELTEGKALGLSHTYANVRINHVINLWGADFDSNGNLKAIYVTDSDSNASIGMKKYFVGVNSAGKVAISAKEIKEDNIGAQVLGLFTLSTGQDSWNQTNGGGHHHHHH
- Conc. of enzyme for 1st IgG heavy chain cleavage (IgG to scIgG), SDS-PAGE: 1900 ng/mL
- Conc. of enzyme for 2nd IgG heavy chain cleavage (scIgG to F(ab')2), SDS-PAGE: 6000 ng/mL and 7500 ng/mL
- IVIg cleavage, SDS-PAGE titration: enzyme concentration at which cleavage starts: IdeS, which starts the cleavage at 0.9 ng/ml (lane 6) and has a dominating scIgG band at 1.9 ng/ml (lane 5)
- IVIg cleavage, SDS-PAGE titration: enzyme concentration giving a dominating scIgG band: IdeS, which starts the cleavage at 0.9 ng/ml (lane 6) and has a dominating scIgG band at 1.9 ng/ml (lane 5)
- IVIg cleavage, SDS-PAGE titration: share of scIgG at 0.94 ng/ml enzyme: the same concentration of IdeS results in less than 50% scIgG (lane 6)

B8: pCART202 (protein)
chain: MDDYQRNATEAYAKEVPHQITSVWTKGVTPLTPEQFTQGEDVIHAPYLAHQGWYDITKAFDGKDNLLCGAATAGNMLHWWFDQNKTEIEAYLSKHPEKQKIIFNNQELFDLKAAIDTKDSQTNSQLFNYFRDKAFPNLSARQLGVMPDLVLDMFINGYYLNVFKTQSTDVNRPYQDKDKRGGIFDAVFTRGDQTTLLTARHDLKNKGLNDISTIIKQELTEGRALALSHTYANVSISHVINLWGADFNAEGNLEAIYVTDSDANASIGMKKYFVGINAHGHVAISAKKIEGENIGAQVLGLFTLSSGKDIWQKLSGGGHHHHHH
- IVIg cleavage, SDS-PAGE titration: enzyme concentration giving an intense scIgG band: Concentrations of 0.94 ng/ml (lane 6) for pCART202, pCART203 and pCART204 result in an intense band of scIgG (arrow 2), with most of the IgG single cleaved

B9: pCART144 (IdeZ with N terminal methionine and histidine tag) (protein)
chain: MDDYQRNATEAYAKEVPHQITSVWTKGVTPLTPEQFRYNNEDVIHAPYLAHQGWYDITKAFDGKDNLLCGAATAGNMLHWWFDQNKTEIEAYLSKHPEKQKIIFNNQELFDLKAAIDTKDSQTNSQLFNYFRDKAFPNLSARQLGVMPDLVLDMFINGYYLNVFKTQSTDVNRPYQDKDKRGGIFDAVFTRGDQTTLLTARHDLKNKGLNDISTIIKQELTEGRALALSHTYANVSISHVINLWGADFNAEGNLEAIYVTDSDANASIGMKKYFVGINAHGHVAISAKKIEGENIGAQVLGLFTLSSGKDIWQKLSGGGHHHHHH
- IVIg cleavage of the 2nd heavy chain, SDS-PAGE titration: pCART144 (IdeZ) is worse in cleavage of the 2nd heavy chain compared to IdeS (BX1001865 and pCART124)
- IVIg cleavage, SDS-PAGE titration: shows more effective cleavage at the 1st IgG heavy chain (lane 6) compared to IdeS (BX1001865 and pCART124)

B10: IdeS BX1001865 (protein)
chain: DSFSANQEIRYSEVTPYHVTSVWTKGVTPPANFTQGEDVFHAPYVANQGWYDITKTFNGKDDLLCGAATAGNMLHWWFDQNKDQIKRYLEEHPEKQKINFNGEQMFDVKEAIDTKNHQLDSKLFEYFKEKAFPYLSTKHLGVFPDHVIDMFINGYRLSLTNHGPTPVKEGSKDPRGGIFDAVFTRGDQSKLLTSRHDFKEKNLKEISDLIKKELTEGKALGLSHTYANVRINHVINLWGADFDSNGNLKAIYVTDSDSNASIGMKKYFVGVNSAGKVAISAKEIKEDNIGAQVLGLFTLSTGQDSWNQTN
- Conc. of enzyme for 1st IgG heavy chain cleavage (IgG to scIgG), SDS-PAGE: 1900 ng/mL
- Conc. of enzyme for 2nd IgG heavy chain cleavage (scIgG to F(ab')2), SDS-PAGE: 6000 ng/mL and 7500 ng/mL
- IVIg cleavage, SDS-PAGE titration: enzyme concentration at which cleavage starts: IdeS, which starts the cleavage at 0.9 ng/ml (lane 6) and has a dominating scIgG band at 1.9 ng/ml (lane 5)
- IVIg cleavage, SDS-PAGE titration: enzyme concentration giving a dominating scIgG band: IdeS, which starts the cleavage at 0.9 ng/ml (lane 6) and has a dominating scIgG band at 1.9 ng/ml (lane 5)
- IVIg cleavage, SDS-PAGE titration: enzyme concentration giving mainly scIgG: IdeS (BX1001865) has generated mainly scIgG (arrow 2) at a concentration of 1.9 ng/ml (lane 5)
- IVIg cleavage, SDS-PAGE titration: share of scIgG at 0.94 ng/ml enzyme: the same concentration of IdeS results in less than 50% scIgG (lane 6)
